Measured values: US7053177B1, “Random peptides that bind to gastro-intestinal tract (GIT) transport receptors and related methods” (Cytogen Corporation, priority 1997, dated 2006)
Ends that are not written are not given here.

Assays:
[1] = target: BSA (Bos taurus, UniProt P02769); assay: Receptor ELISA of phage on BSA (background control protein); assay type: binding
Description: (§1) 96 well plates were coated overnight with GIT receptor, BSA and, optionally, IDE (insulin degrading enzyme, an irrelevant His-fusion protein)or hTF. The plates were blocked for one hour with 0.5% BSA-PBS. After clarification, the amplified phage were diluted 1:100 in 1% BSA plus 0.05% Tween 20 in PBS and added to the plates. Following incubation of the plates on a rotator for 1 to 2 hours, the plates were washed 5 times with 1% BSA plus 0.05% Tween 20 in PBS. Dilute anti-M13-HRP conjugate (anti-M13 antibody linked to horse radish peroxidase (HRP)) was added to all the wells and the plate was incubated for one hour on a rotator. After the plates were washed 5 times, as described above, TMB substrate was added to the wells. The plates were read at 650 nm absorbance.

[2] = system: rat gastro-intestinal tract (closed loop); assay: Transport of preselected phage libraries in rat closed loop, detected by oligonucleotide hybridization/autoradiography; conditions: in words; for Presence in the intestinal samples fractions / Transport from the GIT closed loop model into the portal circulation: D2H pool
Description: Four preselected phage libraries, GI-D2H, GI-hSI, GI-HPT1 and GI-hPEPT1, were constructed by pooling phage previously selected by screening random phage display libraries D38 and DC43 using the HPT1, HPEPT1, D2H and hSI receptor or binding sites located in the GIT.
In particular, phages selected in vitro to each receptor or binding site located in the GIT were amplified in E. coli, PEG-precipitated, resuspended in TBS and the titer of each phage sample was determined by plaquing in E. coli as described above. […] Using the in situ loop model described above, 0.5 ml of preselected phage library solution was injected into the tied-off portion of the duodenum/jejunum. Blood was collected into heparinized tubes from the portal vein at 0, 15, 30, 45 and 60 minutes. A blood sample was taken from the systemic circulation at the end of the experiment. Similarly, the portion of the duodenum/jejunum used for phage injection was taken at the end of the experiment.
Thirty microliters of the collected portal blood (neat and 10^−2, 10^−1, 10^−6 dilutions) was added to 30 μl E. coli K91Kan cells (overnight culture) and incubated at 37° C. for 10 min. Subsequently, 3 ml of top agarose was added and the samples were plated for plaques. One hundred microliters of the collected portal blood was added to 100 μl of E. coli K91Kan. Five milliliters of LB medium was then added and the samples were incubated at 37° C. overnight in a rotating microbial incubator. The E. coli was removed by centrifugation and the amplified phage supernatant samples were either titered directly or were PEG-precipitated, resuspended in TBS and titered. Following titration of the amplified phage, samples containing phage from each set of animals were combined, adjusting the titer of each sample to the same titer, and were plated for plaques on LB agar lates (22 cm^2 square plates). Either 12,000 or 24,000 phage were lated for plaques.
Thirty microliters of the collected systemic blood (neat and 10^−2, 10^−1, 10^−6 dilutions) was added to E. coli K91Kan cells, incubated at 37° C. for 10 min. Three ml of top agarose was then added and the samples were plated for plaques. One hundred microliters of the collected systemic blood was added to 100 μl of E. coli K91Kan, incubated at 37° C. for 10 min. Five milliliters of LB medium was then added and the samples were incubated at 37° C. overnight in a rotating microbial incubator. The E. coli was removed by centrifugation and the amplified phage supernatant samples were either titered directly or were PEG-precipitated, resuspended in TBS and titered. Following titration of the amplified phage, samples containing phage from each set of animals were combined, adjusting the titer of each sample to the same titer, and were plated for plaques on LB agar plates (22 cm^2 square plates). Either 12,000 or 24,000 phage were plated for plaques.
The intestinal tissue portion used in each closed loop was excised. […] Alternatively, the tissue (in PBS supplemented with protease inhibitors) was homogenized in an Ultra Thorex homogenizer, washed 3 times in PBS containing protease inhibitors and resuspended in PBS containing protease inhibitors (Int-G samples). In each case, serial dilutions (neat and 10^−2, 10^−4, 10^−6 dilutions) of the tissue homogenate was titered in E. coli.
The phage amplified from the portal blood, systemic blood and intestinal tissue was plated for plaques. […] The filters were air-dried, and the DNA was cross-linked to the filter (UV crosslinking: 2 min, high setting). The filters were incubated in pre-hybridization buffer (6×SSC, 5× Denhardt's solution, 0.1% SDS, […] yeast tRNA) at 40° C.–45° C. for at least 60 min.
Synthetic oligonucleotides, (22-mers), complimentary to regions coding for the receptor or binding sites used to create the preselected phage library, were synthesized (see Table 14 below).

[3] = target: bovine serum albumin (bovine) (UniProt P02769); assay: phage ELISA on coated BSA
bovine serum albumin (bovine), sequence (P02769 25-607 limits assumed): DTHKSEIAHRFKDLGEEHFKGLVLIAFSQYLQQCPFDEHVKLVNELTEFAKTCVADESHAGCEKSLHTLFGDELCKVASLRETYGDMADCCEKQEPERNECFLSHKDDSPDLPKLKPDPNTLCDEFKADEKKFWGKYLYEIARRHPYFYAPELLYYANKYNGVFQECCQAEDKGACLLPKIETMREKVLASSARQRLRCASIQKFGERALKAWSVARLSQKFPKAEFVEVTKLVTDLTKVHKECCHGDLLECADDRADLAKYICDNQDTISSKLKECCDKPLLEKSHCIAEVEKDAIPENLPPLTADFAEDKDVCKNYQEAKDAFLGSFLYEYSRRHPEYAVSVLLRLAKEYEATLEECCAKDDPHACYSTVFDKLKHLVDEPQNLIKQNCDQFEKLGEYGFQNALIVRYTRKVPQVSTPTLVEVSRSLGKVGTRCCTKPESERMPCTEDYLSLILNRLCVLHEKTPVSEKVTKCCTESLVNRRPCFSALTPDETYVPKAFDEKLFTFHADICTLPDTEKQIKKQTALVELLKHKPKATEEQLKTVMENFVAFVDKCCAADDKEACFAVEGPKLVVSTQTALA

[4] = target: T1, recombinant hPEPT1 receptor domain (human PEPT1, amino acid residues 391-571), His-tag fusion protein (human, UniProt P46059 391-571); assay: phage ELISA, OD on hPEPT1 over OD on BSA
T1 construct: purified under denaturing conditions; coated on plates
T1 sequence: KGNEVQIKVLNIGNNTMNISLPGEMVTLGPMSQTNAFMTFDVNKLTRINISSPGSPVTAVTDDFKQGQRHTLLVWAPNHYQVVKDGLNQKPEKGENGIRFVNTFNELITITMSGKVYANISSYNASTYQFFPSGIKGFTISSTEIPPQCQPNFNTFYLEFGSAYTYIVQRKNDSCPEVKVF
Description: as §1, with “6.6. Receptor ELISA Procedure 96” for “96”, “Dilute anti-M13-HRP conjugate (anti-M13 antibody linked to horse radish peroxidase (HRP)) was added to all the wells and the plate was incubated for one hour on a rotator.” left out

[5] = target: T1, recombinant hPEPT1 receptor domain …; assay: phage ELISA on coated hPEPT1
Description: as §1, with “6.6. Receptor ELISA Procedure 96” for “96”, “Dilute anti-M13-HRP conjugate (anti-M13 antibody linked to horse radish peroxidase (HRP)) was added to all the wells and the plate was incubated for one hour on a rotator.” left out

[6] = target: T2, recombinant hPEPT1 receptor domain (human PEPT1, amino acid residues 391-571), His-tag fusion protein (human) (UniProt P46059); assay: phage ELISA on coated hPEPT1
T2 sequence: T1 sequence

[7] = target: T2, recombinant hPEPT1 receptor domain (human PEPT1, amino acid residues 391-571), His-tag fusion protein (human); assay: phage ELISA, OD on hPEPT1 over OD on BSA
[8] = Table 1, phage panned on hSI, 650 nm
[9] = Table 3, two pans on D2H, third on Caco-2 snapwells

BSA, sequence (P02769 25-607): as the sequence (P02769 25-607 limits assumed) above

RVGQCTDSDVRRPWARSCAHQGCGAGTRNSHGCITRPLRQASAH [SNi10]
BSA [1, 8]: 0.051 OD

RYKHDIGCDAGVDKKSSSVRGGCGAHSSPPRAGRGPRGTMVSRL [DCX8]
Presence in the intestinal samples fractions [2]: to a much lesser extent | Transport from the GIT closed loop model into the portal circulation [2]: transported | BSA [1, 9]: 0.063 OD

SPCGGSWGRFMQGGLFGGRTDGCGAHRNRTSASLEPPSSDY [SNi34]
BSA [1, 8]: 0.115 OD

SQGSKQCMQYRTGRLTVGSEYGCGMNPARHATPAYPARLLPRYR [DCX11]
Presence in the intestinal samples fractions [2]: found | Transport from the GIT closed loop model into the portal circulation [2]: preferably transported | BSA [1, 9]: 0.071 OD

STPPSREAYSRPYSVDSDSDTNAKHSSHNRRLRTRSRPN (not fully specified) [PAX2]
Presence in the portal or systemic circulation ([2]; HPT1 pool, PAX2 used at 4x concentration): found in the portal and systemic circulation | Binding to / presence in the intestine samples ([2]; hPEPT1 pool): not found | Presence in the portal circulation ([2]; hPEPT1 pool): found

B1: phage PAX40 (peptide)
peptide: RASTQGGRGVAPEFGASVLGRGCGSATYYTNSTSCKDAMGHNYS
modifications: cysteine pairing not given here; also: displayed as N-terminal pIII fusion on M13 phage
notes: M13 phage displaying this insert as N-terminal pIII fusion; whole phage in the ELISA; not shown: M13 phage particle / pIII display carrier (and vector flanks)
OD [3]: 0.076 OD 650 nm | PEPT1/BSA [4]: 6 ratio | OD [5]: 0.461 OD 650 nm

B2: phage PAX38 (peptide, not shown: large carriers)
peptide: SSKVSSPRDPTVPRKGGNVDYGCGHRSSARMPTSALSSITKCYT
modifications: cysteine pairing not given here; also: displayed as N-terminal pIII fusion on M13 phage
OD [3]: 0.064 OD 650 nm | OD [6]: 0.292 OD 650 nm | PEPT1/BSA [7]: 5

SYCRVKGGGEGGHTDSNLARSGCGKVARTSRLQHINPRATPPSR (peptide, not shown: large carriers) [phage PAX15]
OD [3]: 0.079 OD 650 nm | OD [6]: 0.301 OD 650 nm | PEPT1/BSA [7]: 4

B3: phage P90 (peptide)
peptide: SSADAEKCAGSLLWWGRQNNSGCGSPTKKHLKHRNRSQTSSSSH
modifications: cysteine pairing not given here; also: displayed as N-terminal pIII fusion on M13 phage
notes: M13 phage displaying this insert as N-terminal pIII fusion; whole phage in the ELISA; not shown: M13 pIII coat protein and phage particle (display carrier)
OD [3]: 0.107 OD 650 nm | PEPT1/BSA [4]: 9 ratio | OD [5]: 1.12 OD 650 nm

RGSTGTAGGERSGVLNLHTRDNASGSGFKPWYPSNRGHK (peptide, not shown: large carriers, also: displayed as N-terminal pIII fusion on M13 phage) [phage 5PAX5]
OD [3]: 0.036 OD 650 nm | OD [6]: 0.15 OD 650 nm | PEPT1/BSA [7]: 4

B4: phage PAX46 (peptide)
peptide: SRCTDNEQCPDTGTRSRSVSNARYFSSRLLKTHAPHRP
modifications: cysteine pairing not given here; also: displayed as N-terminal pIII fusion on M13 phage
notes: as for B1
OD [3]: 0.077 OD 650 nm | PEPT1/BSA [4]: 6 ratio | OD [5]: 0.429 OD 650 nm

B5: phage PAX17 (peptide)
peptide: SQVDSFRNSFRWYEPSRALCHGCGKRDTSTTRIHNSPSDSYPTR
modifications: cysteine pairing not given here; also: displayed as N-terminal pIII fusion on M13 phage
notes: as for B1
OD [3]: 0.095 OD 650 nm | PEPT1/BSA [4]: 5 ratio | OD [5]: 0.514 OD 650 nm

B6: phage PAX18 (peptide)
peptide: SFLRFQSPRFEDYSRTISRLRNATNPSNVSDAHNNRALA
modifications: also: displayed as N-terminal pIII fusion on M13 phage
notes: as for B1
OD [3]: 0.087 OD 650 nm | PEPT1/BSA [4]: 5 ratio | OD [5]: 0.416 OD 650 nm

RPKNVADAYSSQDGAAAEETSHASNAARKSPKHKPLRRP (peptide, not shown: large carriers, also: displayed as N-terminal pIII fusion on M13 phage) [phage 5PAX3]
OD [3]: 0.04 OD 650 nm | OD [6]: 0.173 OD 650 nm | PEPT1/BSA [7]: 4

RWPSVGYKGNGSDTIDVHSNDASTKRSLIYNHRRPLFP (peptide, not shown: large carriers) [phage PAX9]
OD [3]: 0.079 OD 650 nm | OD [6]: 0.312 OD 650 nm | PEPT1/BSA [7]: 4

RWGWERSPSDYDSDMDLGARRYATRTHRAPPRVLKAPLP (peptide, not shown: large carriers, also: displayed as N-terminal pIII fusion on M13 phage) [phage 5PAX7]
OD [3]: 0.037 OD 650 nm | OD [6]: 0.171 OD 650 nm | PEPT1/BSA [7]: 5

B7: phage PAX43 (peptide, not shown: large carriers)
peptide: RWCEKHKFTAARCSAGAGFERDASRPPQPAHRDNTNRNA
modifications: cysteine pairing not given here; also: displayed as N-terminal pIII fusion on M13 phage
OD [3]: 0.069 OD 650 nm | OD [6]: 0.345 OD 650 nm | PEPT1/BSA [7]: 5

B8: phage PAX45 (peptide)
peptide: SFQVYPDHGLERHALDGTGPLYAMPGRWIRARPQNRDRQ
modifications: also: displayed as N-terminal pIII fusion on M13 phage
notes: as for B1
OD [3]: 0.081 OD 650 nm | PEPT1/BSA [4]: 5 ratio | OD [5]: 0.419 OD 650 nm

B9: phage PAX35 (peptide)
peptide: RSITDGGINEVDLSSVSNVLENANSHRAYRKHRPTLKRP
modifications: also: displayed as N-terminal pIII fusion on M13 phage
notes: as for B1
OD [3]: 0.065 OD 650 nm | PEPT1/BSA [4]: 7 ratio | OD [5]: 0.474 OD 650 nm

B10: phage P31 (peptide)
peptide: SARDSGPAEDGSRAVRLNGVENANTRKSSRSNPRGRRHP
modifications: also: displayed as N-terminal pIII fusion on M13 phage
notes: as for B3
OD [3]: 0.075 OD 650 nm | PEPT1/BSA [4]: 11 ratio | OD [5]: 0.807 OD 650 nm
